Ends that are not written are not given here. * marks the point of attachment. IAANS = 2-(4'-(iodoacetamido)anilino)naphthalene-6-sulfonic acid label, O=C(C*)Nc1ccc(Nc2ccc3cc(S(=O)(=O)O)ccc3c2)cc1; HiLyte Fluor 488 maleimide = HiLyte Fluor 488-maleimide (Anaspec) label
What was measured:
Details in all cases: both partners purified
wild-type DnaK [1] = target: T1, wild-type DnaK (Escherichia coli, UniProt P0A6Y8 1-638); assay: MST; 100 nM HiLyte Fluor 488-labelled peptide with 0.6 nM-10 μM DnaK, HKM buffer (25 mM HEPES/KOH pH 7.6, 50 mM KCl, 5 mM MgCl2) with 0.1% Tween-20, incubated at least 30 min, 30 °C, Monolith NT.115
T1 construct: DnaK, the Hsp70 of Escherichia coli; also called DnaKwt; Wt; source: E. coli ΔdnaK52 cells (BB1553), purified (Ni-IDA, Resource Q), nucleotides removed

DnaK-V440A [2] = target: T2, DnaK-V440A (Escherichia coli, UniProt P0A6Y8 1-638, V440A); assay: as above
T2 construct: DnaK, the Hsp70 of Escherichia coli, Val440 replaced by alanine; source: E. coli ΔdnaK52 cells (BB1553), purified (Ni-IDA, Resource Q), nucleotides removed

DnaK-D148A [3] = target: T3, DnaK-D148A (Escherichia coli, UniProt P0A6Y8 1-638, D148A); assay: as above
T3 construct: DnaK, the Hsp70 of Escherichia coli, Asp148 replaced by alanine; source: E. coli ΔdnaK52 cells (BB1553), purified (Ni-IDA, Resource Q), nucleotides removed

DnaK-L484A [4] = target: T4, DnaK-L484A (Escherichia coli, UniProt P0A6Y8 1-638, L484A); assay: as above
T4 construct: DnaK, the Hsp70 of Escherichia coli, Leu484 replaced by alanine; source: E. coli ΔdnaK52 cells (BB1553), purified (Ni-IDA, Resource Q), nucleotides removed

DnaK-V440A [5] = target: T2, DnaK-V440A; assay: fluorescence dissociation kinetics (chase with unlabelled peptide); in the presence of ATP; 0.5 μM DnaK and 0.5 μM IAANS-labelled peptide pre-incubated at least 30 min, then mixed with 50-fold excess of unlabelled peptide; HKM buffer, 30 °C; stopped flow
DnaK-D481K = target: T5, DnaK-D481K (Escherichia coli, UniProt P0A6Y8 1-638, D481K); assay: as above
T5 construct: DnaK, the Hsp70 of Escherichia coli, Asp481 replaced by lysine; source: E. coli ΔdnaK52 cells (BB1553), purified (Ni-IDA, Resource Q), nucleotides removed

DnaK-D481A = target: T6, DnaK-D481A (Escherichia coli, UniProt P0A6Y8 1-638, D481A); assay: as above
T6 construct: DnaK, the Hsp70 of Escherichia coli, Asp481 replaced by alanine; source: E. coli ΔdnaK52 cells (BB1553), purified (Ni-IDA, Resource Q), nucleotides removed

DnaK-L484A [6] = target: T4, DnaK-L484A; assay: as above
wild-type DnaK [7] = target: T1, wild-type DnaK; assay: fluorescence dissociation kinetics (chase with unlabelled peptide); no nucleotide; 0.5 μM DnaK and 0.5 μM IAANS-labelled peptide pre-incubated at least 30 min, then mixed with 50-fold excess of unlabelled peptide; HKM buffer, 30 °C; Perkin Elmer LS55
DnaK-Y145A = target: T7, DnaK-Y145A (Escherichia coli, UniProt P0A6Y8 1-638, Y145A); assay: as above
T7 construct: DnaK, the Hsp70 of Escherichia coli, Tyr145 replaced by alanine; source: E. coli ΔdnaK52 cells (BB1553), purified (Ni-IDA, Resource Q), nucleotides removed

DnaK-D148A [8] = target: T3, DnaK-D148A; assay: as above
DnaK-Y145H = target: T8, DnaK-Y145H (Escherichia coli, UniProt P0A6Y8 1-638, Y145H); assay: as above
T8 construct: DnaK, the Hsp70 of Escherichia coli, Tyr145 replaced by histidine; source: E. coli ΔdnaK52 cells (BB1553), purified (Ni-IDA, Resource Q), nucleotides removed

DnaK-F146A = target: T9, DnaK-F146A (Escherichia coli, UniProt P0A6Y8 1-638, F146A); assay: as above
T9 construct: DnaK, the Hsp70 of Escherichia coli, Phe146 replaced by alanine; source: E. coli ΔdnaK52 cells (BB1553), purified (Ni-IDA, Resource Q), nucleotides removed

DnaK-Y145F = target: T10, DnaK-Y145F (Escherichia coli, UniProt P0A6Y8 1-638, Y145F); assay: as above
T10 construct: DnaK, the Hsp70 of Escherichia coli, Tyr145 replaced by phenylalanine; source: E. coli ΔdnaK52 cells (BB1553), purified (Ni-IDA, Resource Q), nucleotides removed

| binding result (wild-type DnaK [1]) | binding result (DnaK-V440A [2]) | binding result (DnaK-D148A [3]) | binding result (DnaK-L484A [4]) | binding result (DnaK-V440A [5]) | binding result (DnaK-D481K) | binding result (DnaK-D481A) | binding result (DnaK-L484A [6]) | binding result (wild-type DnaK [7]) | binding result (DnaK-Y145A) | binding result (DnaK-D148A [8]) | binding result (DnaK-Y145H) | binding result (DnaK-F146A) | binding result (DnaK-Y145F) | Binder |
| --- | --- | --- | --- | --- | --- | --- | --- | --- | --- | --- | --- | --- | --- | --- |
| binds | binds | binds | binds | – | – | – | – | – | – | – | – | – | – | QRKLFFNLRKTKQC(HiLyte Fluor 488 maleimide) (residues Q132-Q144 of σ32, the E. coli heat shock transcription factor; cysteine added at the C-terminus of the peptide (the '-C' of its name); also called fluorescently labelled peptide derived from σ32) [HiLyte Fluor 488-labelled σ32-Q132-Q144-C] |
| – | – | – | – | binds | binds | binds | binds | binds | binds | binds | binds | binds | binds | QRKLFFNLRKTKQC(IAANS) (residues Q132-Q144 of σ32, the E. coli heat shock transcription factor; cysteine added at the C-terminus of the peptide (the '-C' of its name); also called 2-(4'-(iodoacetamido)anilino)naphthalene-6-sulfonic acid labelled σ32-Q132-Q144-C; substrate) [IAANS-labelled peptide σ32-Q132-Q144-C] |

— PMC4595643, “Pathways of allosteric regulation in Hsp70 chaperones” (Nature Communications, 2015)
